Details in all cases: both partners purified
Assay [1] has as its target T1, human Rab7 (residue 2-195) Q67L, GTP-loaded (human, UniProt P51149 2-195, Q67L).
T1 construct: Ras-related protein Rab-7a, human, UniProt P51149, residues 2-195, dominant active mutant Q67L; Loaded with 0.5 mM GTP for ITC; also called Rab7 Q67L; dominant active Rab7; source: E. coli BL21(DE3), purified (Ni-NTA, SEC)
In words: ITC; 20 °C; 20 mM Tris-HCl pH 7.5, 150 mM NaCl; 1 mM ORP1 ANK in the syringe, 0.1 mM Rab7 or Rab7-RILP in the cell; Rab7 Q67L with 0.5 mM GTP, Rab7 T22N with 0.5 mM GDP; independent binding model. A general note: Isothermal titration calorimetry measures the heat released or taken up as one component is titrated into another.

In assay [2] the target is T2, human Rab7 (residue 2-195) T22N, GDP-loaded (human, UniProt P51149 2-195, T22N).
T2 construct: Ras-related protein Rab-7a, human, UniProt P51149, residues 2-195, dominant negative mutant T22N; Loaded with 0.5 mM GDP for ITC; also called Rab7 T22N; dominant negative Rab7; source: E. coli BL21(DE3), purified (Ni-NTA, SEC)
T2 sequence (P51149 2-195 T22N): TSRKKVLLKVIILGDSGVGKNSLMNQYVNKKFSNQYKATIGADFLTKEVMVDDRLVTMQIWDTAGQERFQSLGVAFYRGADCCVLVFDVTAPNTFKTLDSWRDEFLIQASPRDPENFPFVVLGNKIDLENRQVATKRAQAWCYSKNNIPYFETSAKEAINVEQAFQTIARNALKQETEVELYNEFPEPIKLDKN
The assay is described as above.

In assay [3] the target is T3, human Rab7 (residue 2-195) Q67L Δ73, GTP-bound (human, UniProt P51149 2-195, Q67L | Δ73).
T3 construct: Ras-related protein Rab-7a, human, UniProt P51149, residues 2-195, Q67L and deletion of Leu73 in switch II; 0.5 mM MgCl2 and GTP were added before crystallisation; also called Rab7 Q67L Δ73; Rab7 (Q67L, Δ73); source: E. coli BL21(DE3), purified (Ni-NTA, SEC)
T3 sequence (P51149 other isoform, or with tags, fused parts or gaps Q67L | Δ73 | Q67L | Δ73 | Q67L Q67L): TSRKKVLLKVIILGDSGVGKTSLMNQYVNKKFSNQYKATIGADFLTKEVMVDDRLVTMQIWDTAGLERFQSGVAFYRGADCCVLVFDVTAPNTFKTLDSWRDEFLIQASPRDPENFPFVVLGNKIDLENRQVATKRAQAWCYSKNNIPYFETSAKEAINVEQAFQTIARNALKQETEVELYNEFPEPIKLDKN
In words: crystal structure; ORP1 ANK (5-152) with GTP- and Mg2+-bound Rab7 (2-195) Q67L Δ73; 2.1 Å; two heterodimers in the asymmetric unit.

T1 sequence (P51149 2-195 Q67L): as the sequence (P51149 2-195 T22N) above, with N21T, Q66L counted along it

B1: human ORP1 ANK domain (residue 5-152) (domain or fragment, UniProt Q9BXW6-1 5-152, looked up)
chain: AEQQLLHHARNGNAEEVRQLLETMARNEVIADINCKGRSKSNLGWTPLHLACYFGHRQVVQDLLKAGAEVNVLNDMGDTPLHRAAFTGRKELVMLLLEYNADTTIVNGSGQTAKEVTHAEEIRSMLEAVERTQQRKLEELLLAAAREG
notes: The His tag was cut off with thrombin (site LVPR/GS); A longer ANK construct (5-233) was also cloned; also called small ORP1 ANK construct; source: E. coli BL21(DE3), purified (Ni-NTA, SEC); not shown: His6, N-terminal, cleaved
In general, Kd refers to the concentration at which binding is half-saturated. In general, stoichiometry N refers to a count of units in the complex or per binding partner. B1 displayed a Kd in assay [1] of 9.3 µM. In addition, the “stoichiometry N” value in assay [1] was 1. Also, the binding result in assay [2] and in assay [3] was “binds” in each case.

For the origin of these results see article PMC6363164, “Structural basis of human ORP1-Rab7 interaction for the late-endosome and lysosome targeting” (PLoS ONE, 2019).
